# Earlier results in PMC6826157.
# Experiments:
# Asp137 = Asp137 (UniProt position 137, SNYFFDTTQGH); experiment: kinetics; conditions: V/K profile with the natural substrate L-tryptophan (free enzyme plus substrate)
# Lys270 = Lys270 (UniProt position 270, AMSAKKDAMVP); experiment: kinetics; conditions: V/K profile with the natural substrate L-tryptophan (free enzyme plus substrate)
substance,measurement,setting,value
"Tryptophan indole-lyase (tryptophanase, TIL, EC 4.1.99.1) (Escherichia coli)",pKa,Asp137,6.0 ± 0.2
same,pKa,Lys270,7.6 ± 0.09
